First the molecules themselves.
B1: C10orf62 (parent)
chain: MLWVQRKRRRKETSECPSDKDKSP
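Note: lentivirally expressed fusions sorted by FACS into six bins by GFP to DsRed ratio, PSI derived from sequencing read proportions per bin multiplied by bin number.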

The series covers variants of B1. Nature of the series: protein stability index of a GFP-peptide fusion (GPS, HEK-293T) (PSI 1-6); higher = more stable. The conditions noted are these: c terminus: a fixed tail appended.
As to MLWVQRKRRRKETSECPSYKDKSP [D19Y], the protein stability index came out at 2.99.
For the variant MLWVQRKRRRKETSECPSAKDKSP [D19A], the protein stability index was determined as 2.77.
Then MLWVQRKRRRKETSECPSHKDKSP [D19H], with 2.77; and MLWVQRKRRRKETSECPSNKDKSP [D19N], with 2.92.
MLWVQRKRRRKETSECPSCKDKSP [D19C]: the protein stability index stood at 2.76.
The same measure for MLWVQRKRRRKETSECPSIKDKSP [D19I]: 2.84; for MLWVQRKRRRKETSECPSVKDKSP [D19V]: 2.63; for MLWVQRKRRRKETSECPSMKDKSP [D19M]: 3.44.
Turning to MLWVQRKRRRKETSECPSQKDKSP [D19Q], the protein stability index amounted to 2.65.
The same measure for MLWVQRKRRRKETSECPSFKDKSP [D19F]: 2.57; for MLWVQRKRRRKETSECPSEKDKSP [D19E]: 2.46; for MLWVQRKRRRKETSECPSPKDKSP [D19P]: 2.61.
For the variant MLWVQRKRRRKETSECPSWKDKSP [D19W], the protein stability index came to 1.65.
The same measure for MLWVQRKRRRKETSECPSLKDKSP [D19L]: 1.98; for MLWVQRKRRRKETSECPSSKDKSP [D19S]: 2.37; for MLWVQRKRRRKETSECPSDKDESP [K22E]: 2.83.
The same measure for MLWVQRKRRRKETSECPSDKDYSP [K22Y]: 3.12; for MLWVQRKRRRKETSECPSDKDDSP [K22D]: 2.48.
The same measure for MLWVQRKRRRKETSECPSDKDMSP [K22M]: 3.06; for MLWVQRKRRRKETSECPSDKDTSP [K22T]: 3.48; for MLWVQRKRRRKETSECPSDKDISP [K22I]: 2.61.
In the case of MLWVQRKRRRKETSECPSDKDVSP [K22V], the protein stability index worked out at 3.63.
MLWVQRKRRRKETSECPSDKDCSP [K22C]: the protein stability index stood at 2.32.
Turning to MLWVQRKRRRKETSECPSDKDASP [K22A], the protein stability index came out at 4.4.
For MLWVQRKRRRKETSECPSDKDNSP [K22N], the protein stability index is 3.47.
With MLWVQRKRRRKETSECPSDKDSSP [K22S], the protein stability index stood at 3.18.
Consider MLWVQRKRRRKETSECPSDKDGSP [K22G], for which the protein stability index came to 2.97.
As to MLWVQRKRRRKETSECPSDKDFSP [K22F], the protein stability index came out at 2.66.
MLWVQRKRRRKETSECPSDKDLSP [K22L]: the protein stability index is 3.2.
Then MLWVQRKRRRKETSECPSDKDPSP [K22P], with 3.58.
The same measure for MLWVQRKRRRKETSECLSDKDKSP [P17L]: 2.98.
Then MLWVQRKRRRKETSECRSDKDKSP [P17R], with 2.52; and MLWVQRKRRRKETSECDSDKDKSP [P17D], with 2.6.
In the case of MLWVQRKRRRKETSECCSDKDKSP [P17C], the protein stability index came out at 2.74.
The same measure for MLWVQRKRRRKETSECHSDKDKSP [P17H]: 2.81; for MLWVQRKRRRKETSECNSDKDKSP [P17N]: 3.23; for MLWVQRKRRRKETSECMSDKDKSP [P17M]: 3.44.
On to MLWVQRKRRRKETSECISDKDKSP [P17I], for which the protein stability index was determined as 2.96.
Take MLWVQRKRRRKETSECESDKDKSP [P17E]: the protein stability index was 2.41.
As for MLWVQRKRRRKETSECSSDKDKSP [P17S], the protein stability index worked out at 2.92.
With MLWVQRKRRRKETSECQSDKDKSP [P17Q], the protein stability index is 3.36.
The same measure for MLWVQRKRRRKETSECTSDKDKSP [P17T]: 3.08; for MLWVQRKRRRKETSECYSDKDKSP [P17Y]: 2.27.
Take MLWVQRKRRRKETSECWSDKDKSP [P17W]: the protein stability index came out at 2.86.
For the variant MLWVQRKRRRKETSECFSDKDKSP [P17F], the protein stability index worked out at 2.51.
The same measure for MLWVQRKRRRKETSECPSDKDKKP [S23K]: 2.27; for MLWVQRKRRRKETSECPSDKDKFP [S23F]: 2.5.
Then MLWVQRKRRRKETSECPSDKDKMP [S23M], with 3.39; and MLWVQRKRRRKETSECPSDKDKCP [S23C], with 3.15; and MLWVQRKRRRKETSECPSDKDKRP [S23R], with 2.88.
The same measure for MLWVQRKRRRKETSECPSDKDKGP [S23G]: 3.25; for MLWVQRKRRRKETSECPSDKDKLP [S23L]: 3.38; for MLWVQRKRRRKETSECPSDKDKTP [S23T]: 3.05.
Regarding MLWVQRKRRRKETSECPSDKDKIP [S23I], the protein stability index amounted to 2.4.
Turning to MLWVQRKRRRKETSECPSDKDKPP [S23P], the protein stability index is 2.88.
Then MLWVQRKRRRKETSECPSDKDKAP [S23A], with 3.2; and MLWVQRKRRRKETSECPSDKDKEP [S23E], with 2.48; and MLWVQRKRRRKETSECPSDKDKWP [S23W], with 1.92.
The same measure for MLWVQRKRRRKETSECPSDKDKQP [S23Q]: 3.42.
The same measure for MLWVQRKRRRKETSECPSDKDKHP [S23H]: 2.77.
Take MLWVQRKRRRKETSECPSDKDKDP [S23D]: the protein stability index was determined as 3.49.
Then MLWVQRKRRRKETSECPSDKDKVP [S23V], with 3.58; and MLWVQRKRRRKETSECPSDKDKNP [S23N], with 3.29.
Then MLWVQRKRRRKETSECPSDKDKYP [S23Y], with 2.69; and MLWVQRKRRRKETSECPSDPDKSP [K20P], with 3.19; and MLWVQRKRRRKETSECPSDTDKSP [K20T], with 3.35.
Take MLWVQRKRRRKETSECPSDDDKSP [K20D]: the protein stability index came to 4.06.
The same measure for MLWVQRKRRRKETSECPSDMDKSP [K20M]: 3.38; for MLWVQRKRRRKETSECPSDRDKSP [K20R]: 2.81; for MLWVQRKRRRKETSECPSDYDKSP [K20Y]: 3.92.
For the variant MLWVQRKRRRKETSECPSDVDKSP [K20V], the protein stability index was found to be 3.27.
The same measure for MLWVQRKRRRKETSECPSDLDKSP [K20L]: 3.01; for MLWVQRKRRRKETSECPSDCDKSP [K20C]: 3.52; for MLWVQRKRRRKETSECPSDNDKSP [K20N]: 4.29.
On to MLWVQRKRRRKETSECPSDGDKSP [K20G], for which the protein stability index worked out at 3.29.
The same measure for MLWVQRKRRRKETSECPSDSDKSP [K20S]: 2.73; for MLWVQRKRRRKETSECPSDADKSP [K20A]: 2.74.
With MLWVQRKRRRKETSECPSDQDKSP [K20Q], the protein stability index turned out to be 2.46.
Take MLWVQRKRRRKETSECPSDFDKSP [K20F]: the protein stability index was 2.12.
With MLWVQRKRRRKETSECPSDHDKSP [K20H], the protein stability index is 2.97.
Then MLWVQRKRRRKETSECPSDIDKSP [K20I], with 3.7; and MLWVQRKRRRKETSECPSDKEKSP [D21E], with 3.44.
As for MLWVQRKRRRKETSECPSDKLKSP [D21L], the protein stability index was determined as 2.29.
The same measure for MLWVQRKRRRKETSECPSDKFKSP [D21F]: 2.4; for MLWVQRKRRRKETSECPSDKKKSP [D21K]: 4.07; for MLWVQRKRRRKETSECPSDKPKSP [D21P]: 2.62.
The same measure for MLWVQRKRRRKETSECPSDKHKSP [D21H]: 2.28.
The same measure for MLWVQRKRRRKETSECPSDKAKSP [D21A]: 2.64.
Regarding MLWVQRKRRRKETSECPSDKRKSP [D21R], the protein stability index was 1.92.
Then MLWVQRKRRRKETSECPSDKMKSP [D21M], with 2.5.
The same measure for MLWVQRKRRRKETSECPSDKQKSP [D21Q]: 2.87; for MLWVQRKRRRKETSECPSDKGKSP [D21G]: 3.36.
Then MLWVQRKRRRKETSECPSDKNKSP [D21N], with 3.44; and MLWVQRKRRRKETSECPSDKYKSP [D21Y], with 2.32.
